Patent US20170007714A1 (ONCOMATRYX BIOPHARMA S L, published 2017)

T1: mouse Endoglin on eEnd2 cells (mouse, UniProt Q63961 27-653)
T1 construct: also called ENG expressing mouse eEnd2
T1 sequence: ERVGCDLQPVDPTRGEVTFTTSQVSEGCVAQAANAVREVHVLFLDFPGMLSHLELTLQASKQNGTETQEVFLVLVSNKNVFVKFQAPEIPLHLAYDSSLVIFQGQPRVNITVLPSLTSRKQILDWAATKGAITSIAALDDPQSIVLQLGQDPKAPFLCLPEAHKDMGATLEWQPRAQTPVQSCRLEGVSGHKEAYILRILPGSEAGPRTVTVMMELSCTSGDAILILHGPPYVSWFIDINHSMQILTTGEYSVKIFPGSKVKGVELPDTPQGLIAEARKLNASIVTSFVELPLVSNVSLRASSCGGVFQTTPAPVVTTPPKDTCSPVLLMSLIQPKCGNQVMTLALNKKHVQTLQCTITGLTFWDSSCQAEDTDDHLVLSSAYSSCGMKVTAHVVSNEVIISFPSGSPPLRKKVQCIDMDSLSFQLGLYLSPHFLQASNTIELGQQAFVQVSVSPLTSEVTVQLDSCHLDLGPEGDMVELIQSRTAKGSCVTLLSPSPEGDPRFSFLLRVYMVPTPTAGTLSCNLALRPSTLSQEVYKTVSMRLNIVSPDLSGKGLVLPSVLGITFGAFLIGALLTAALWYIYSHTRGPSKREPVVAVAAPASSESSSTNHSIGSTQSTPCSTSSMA

T2: recombinant mouse ENG (aa 27-581) (mouse, UniProt Q63961 27-581)
T2 construct: also called rmENG; recombinant mouse Endoglin
T2 sequence: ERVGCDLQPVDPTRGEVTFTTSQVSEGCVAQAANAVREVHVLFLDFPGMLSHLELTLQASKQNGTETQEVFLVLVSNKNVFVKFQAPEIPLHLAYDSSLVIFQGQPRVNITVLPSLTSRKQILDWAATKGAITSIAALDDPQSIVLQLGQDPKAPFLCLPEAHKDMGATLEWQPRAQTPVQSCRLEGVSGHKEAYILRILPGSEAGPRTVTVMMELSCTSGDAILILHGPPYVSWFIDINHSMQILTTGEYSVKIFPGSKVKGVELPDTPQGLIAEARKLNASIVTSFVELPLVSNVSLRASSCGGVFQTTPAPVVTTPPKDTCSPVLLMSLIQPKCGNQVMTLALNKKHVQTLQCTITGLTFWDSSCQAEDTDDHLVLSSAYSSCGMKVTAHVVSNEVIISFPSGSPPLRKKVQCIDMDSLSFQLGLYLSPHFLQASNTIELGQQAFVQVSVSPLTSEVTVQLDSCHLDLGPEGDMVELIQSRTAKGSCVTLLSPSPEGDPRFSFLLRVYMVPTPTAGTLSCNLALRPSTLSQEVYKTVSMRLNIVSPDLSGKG

T3: recombinant human Endoglin (human, UniProt P17813 26-586)
T3 construct: It states only that the extracellular domain is residues 26-561; also called rhENG; recombinant human ENG
T3 sequence: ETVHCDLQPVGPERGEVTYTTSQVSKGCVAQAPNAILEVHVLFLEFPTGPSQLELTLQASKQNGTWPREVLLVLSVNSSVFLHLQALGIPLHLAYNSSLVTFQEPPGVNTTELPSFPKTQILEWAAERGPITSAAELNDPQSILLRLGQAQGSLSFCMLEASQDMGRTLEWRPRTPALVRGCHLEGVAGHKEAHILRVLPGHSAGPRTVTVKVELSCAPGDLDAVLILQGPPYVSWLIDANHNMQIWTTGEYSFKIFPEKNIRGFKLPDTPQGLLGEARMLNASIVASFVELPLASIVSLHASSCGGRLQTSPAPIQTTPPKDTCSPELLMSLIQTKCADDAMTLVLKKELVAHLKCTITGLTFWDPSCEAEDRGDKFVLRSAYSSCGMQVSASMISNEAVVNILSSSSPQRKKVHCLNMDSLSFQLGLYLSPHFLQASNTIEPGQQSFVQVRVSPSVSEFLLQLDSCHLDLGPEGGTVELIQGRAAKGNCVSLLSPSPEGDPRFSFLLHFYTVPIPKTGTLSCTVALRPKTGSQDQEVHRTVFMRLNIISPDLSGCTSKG

T4: human Endoglin on HT1080 cells (human, UniProt P17813 26-658)
T4 construct: also called ENG-positive HT1080
T4 sequence: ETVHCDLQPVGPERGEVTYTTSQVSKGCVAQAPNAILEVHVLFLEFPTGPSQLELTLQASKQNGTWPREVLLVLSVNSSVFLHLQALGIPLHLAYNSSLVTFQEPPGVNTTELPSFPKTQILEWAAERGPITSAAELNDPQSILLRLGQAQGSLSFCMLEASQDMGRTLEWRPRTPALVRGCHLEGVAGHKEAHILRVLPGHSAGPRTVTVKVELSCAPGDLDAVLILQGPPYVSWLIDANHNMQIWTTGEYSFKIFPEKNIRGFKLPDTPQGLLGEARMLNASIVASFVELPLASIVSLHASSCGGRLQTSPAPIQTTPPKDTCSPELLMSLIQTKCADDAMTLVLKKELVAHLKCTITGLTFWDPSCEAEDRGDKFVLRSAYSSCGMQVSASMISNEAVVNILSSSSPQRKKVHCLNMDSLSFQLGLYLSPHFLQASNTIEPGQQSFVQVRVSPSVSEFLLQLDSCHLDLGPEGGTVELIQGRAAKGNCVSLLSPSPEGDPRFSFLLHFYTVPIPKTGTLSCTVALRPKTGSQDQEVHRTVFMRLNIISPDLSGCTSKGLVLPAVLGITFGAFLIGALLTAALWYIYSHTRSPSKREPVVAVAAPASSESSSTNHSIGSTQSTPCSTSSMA

B1: anti-murine Endoglin mE12-IgG1 (antibody, V domains shown)
VH: EVQLVESGGGVVQPGRSLRLSCAASGFTFSSYGMHWVRQAPGKGLVWVSRINSDGSSTSYADSVKGRFTISRDNSKNTLYLQMNSLRAEDTAVYYCARATGTWVMSWGQGTLVTVSS
VL: SSELIQDPAVSVALGQTVRITCQGDSLRSYYASWYQQKPGQAPVLVIYGKNNRPSGIPDRFSGSSSGNTASLTITGAQAEDEADYYCNSRDSSGTVFGGGTKLTVLG
notes: Full-length human IgG1 (gamma1*/lambda, deficient for ADCC and CDC), made from the scFv mE12 and produced in CHO cells; also called anti-muENG mE12; OCMTX004p
B2: anti-human Endoglin A5-IgG1 (antibody, V domains shown)
VH: EVQLLESGGGLVQPGGSLRLSCAASGFTFSSYAMSWVRQAPGKGLEWVSAIYGSDGDTTYADSVKGRFTISRDNSKNTLYLQMNSLRAEDTAVYYCARVFYTAGFDYWGQGTLVTVSS
VL: DIELTQSPSSLSASVGDRVTITCRASQSISSSLNWYQQKPGKAPKLLIYAASSLQSGVPSRFSGSGSGTDFTLTISSLQPEDFATYYCQQAPAKPPTFGQGTKLEIKR
notes: Full-length human IgG1 (gamma1*/kappa, deficient for ADCC and CDC), made from the scFv A5 and produced in CHO cells; also called anti-huENG A5; A5 anti-huENG IgG1

Key:
[1] = target: T1, mouse Endoglin on eEnd2 cells; assay: flow cytometry on ENG-expressing mouse eEnd2 cells
Protocol: (§1) Cell binding was analyzed by flow cytometry, using ENG-positive HT1080 and ENG expressing mouse eEnd2.

[2] = target: T2, recombinant mouse ENG (aa 27-581); assay: ELISA on recombinant mouse ENG, detection with HRP-conjugated anti-human IgG
[3] = target: T5, BSA (UniProt P02769 25-607); assay: ELISA, coated BSA as negative control
T5 construct: also called coated BSA; negative control (BSA)

[4] = target: T3, recombinant human Endoglin; assay: QCM (Attana A100) on rhENG; second of two constants (avidity contribution noted)
[5] = target: T3, recombinant human Endoglin; assay: QCM (Attana A100) on rhENG; first of two constants
[6] = target: T4, human Endoglin on HT1080 cells; assay: flow cytometry on ENG-positive HT1080 cells
Protocol: as §1

T5 sequence (P02769 25-607 limits assumed): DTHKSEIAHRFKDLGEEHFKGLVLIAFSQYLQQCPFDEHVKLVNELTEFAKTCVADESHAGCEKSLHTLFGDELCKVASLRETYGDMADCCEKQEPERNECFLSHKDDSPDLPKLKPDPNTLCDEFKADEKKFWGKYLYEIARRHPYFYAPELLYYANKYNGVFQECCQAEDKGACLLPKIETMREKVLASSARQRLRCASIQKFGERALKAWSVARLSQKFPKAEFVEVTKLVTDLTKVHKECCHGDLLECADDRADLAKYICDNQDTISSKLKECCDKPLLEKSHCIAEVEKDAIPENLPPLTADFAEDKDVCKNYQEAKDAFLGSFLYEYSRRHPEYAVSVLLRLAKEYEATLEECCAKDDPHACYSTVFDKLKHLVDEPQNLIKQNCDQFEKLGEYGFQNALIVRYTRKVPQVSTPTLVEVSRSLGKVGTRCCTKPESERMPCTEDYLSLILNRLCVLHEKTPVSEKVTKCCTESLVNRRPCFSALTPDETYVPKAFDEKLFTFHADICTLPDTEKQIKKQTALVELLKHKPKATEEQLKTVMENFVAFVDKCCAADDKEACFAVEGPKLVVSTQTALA

Binder | EC50 [1] [nM] | EC50 [2] [nM] | binding result [3] | Kd [4] [nM] | Kd [5] [nM] | EC50 [6] [nM]
B1 | 89 | 60 | no binding |  |  | 
B2 |  |  |  | 2.5 | 260 | 0.4
